Experimental data taken from paper PMC3354570 (Structure(London, England:1993), 2012).

Target: the molecule itself
Assay: AUC

B1: human apolipoprotein A-IV core domain, residues 64-335 (domain or fragment, UniProt P06727 84-355, looked up)
chain: ATELHERLAKDSEKLKEEIGKELEELRARLLPHANEVSQKIGDNLRELQQRLEPYADQLRTQVSTQAEQLRRQLTPYAQRMERVLRENADSLQASLRPHADELKAKIDQNVEELKGRLTPYADEFKVKIDQTVEELRRSLAPYAQDTQEKLNHQLEGLTFQMKKNAEELKARISASAEELRQRLAPLAEDVRGNLRGNTEGLQKSLAELGGHLDQQVEEFRRRVEPYGENFNKALVQQMEQLRQKLGPHAGDVEGHLSFLEKDLRDKVNSFF
  stoichiometry N: 2
